Columns and labels:
human VEGF121 = molecular target: T1, human VEGF121 (human, UniProt P15692 207-321); experiment: ELISA, human VEGF121 coated at 20 ng/well, antibody serially diluted from 1 ug/ml, peroxidase anti-human Ig, absorbance 450 nm
T1 sequence: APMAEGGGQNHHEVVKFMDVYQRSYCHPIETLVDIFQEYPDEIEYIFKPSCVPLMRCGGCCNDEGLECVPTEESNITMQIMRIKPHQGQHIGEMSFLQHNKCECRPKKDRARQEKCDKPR
Method: (§1) Next, after 3 times of washing with 300 μL of 0.02% Tween 20-containing PBS (−) (hereafter, denoted as “PBS-T”), 300 μL of 3% skim milk-containing PBS (−) was dispensed to each well, followed by blocking at 37° C. for 1 hour. […] After washing similarly, TMB Single Solution was added for color development at room temperature. After the reaction was stopped with 1 N sulfuric acid, absorbance at 450 nm was measured using a plate reader (Molecular Devices).

[1] = molecular target: T2, Human recombinant VEGF165 (human, UniProt P15692 181-395); experiment: ELISA, human VEGF165 coated at 20 ng/well, antibody serially diluted from 1 ug/ml, peroxidase anti-human Ig, absorbance 450 nm
T2 construct: also called rhVEGF165; rhVEGF
Method: as §1

[2] = molecular target: T2, Human recombinant VEGF165; experiment: measured KD for rhVEGF set against a cited KD of Avastin; the excerpt does not show the method
[3] = molecular target: T2, Human recombinant VEGF165; experiment: SPR, BIAcore-3000, rhVEGF immobilized on the chip, antibody injected
canine VEGFA (VEGF164) = molecular target: T3, canine VEGFA (VEGF164) (canine, UniProt Q9MYV3-3 27-190); experiment: ELISA, canine VEGFA coated at 20 ng/well, antibody serially diluted from 1 ug/ml, peroxidase anti-canine Ig, absorbance 450 nm
T3 construct: also called canine VEGF164
T3 sequence (looked up): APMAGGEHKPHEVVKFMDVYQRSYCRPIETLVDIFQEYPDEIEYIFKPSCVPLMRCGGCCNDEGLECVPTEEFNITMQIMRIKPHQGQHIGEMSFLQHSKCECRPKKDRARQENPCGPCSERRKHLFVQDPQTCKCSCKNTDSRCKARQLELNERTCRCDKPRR
Method: (§2) Next, after 3 times of washing with 300 μL of 0.02% Tween 20-containing PBS (−) (hereafter, denoted as “PBS-T”), 300 μL of 3% skim milk-containing PBS (−) was dispensed into each well, followed by blocking at 37° C. for 1 hour. […] After washing similarly, TMB Single Solution was added for color development at room temperature. After the reaction was stopped with 1 N sulfuric acid, absorbance at 450 nm was measured using a plate reader (Molecular Devices).

[4] = molecular target: T2, Human recombinant VEGF165; experiment: ELISA, human VEGF165 coated at 20 ng/well, antibody serially diluted from 1 ug/ml, peroxidase anti-canine Ig, absorbance 450 nm
Method: as §2

B1: human IgG1 chimeric KLHb1501 antibody (antibody, V domains shown)
VH: DVQLQESGPGLVKPSQSLSLTCTVTGYSITSDYAWTWIRQFPGDKLEWMGYISYSGSTRYNPSLKSRISITRDTSKNQFFLHLNSVTTEDTATYFCARGGDYYGSRPWFAYWGQGTLVTVSA
VL: QAVVTQESALTTSPGETVTLTCRSSTGAVTISNYANWVQEKPDHLFTGLIGGTNNRAPDVPARFSGSLIGDKAALTITGAQTEDEAIYFCALWYSNHLVFGEGTKLTVL
notes: also called KLHb1501HC; KLHb1501HC antibody
EC50 (read off the curve) (human VEGF121): ~0.04 µg/mL
EC50 (read off the curve) [1]: ~0.04 µg/mL

B2: KLHb1501 (antibody, V domains shown)
VH: B1 VH
VL: B1 VL
notes: also called KLHb1501 antibody; KLH1501
ratio of dissociation constant to that of Avastin (bevacizumab) [2]: ≤ 0.001 ratio (KD of the antibody / KD of Avastin, cited as 4.9 nmol/L)
Kd [3]: 0.6 pM

B3: canine-IgGB chimeric KLHb1501 antibody (antibody, V domains shown)
VH: B1 VH
VL: QAVVTQESALTTSPGETVTLTCRSSTGAVTISNYANWVQEKPDHLFTGLIGGTNNRAPDVPARFSGSLIGDKAALTITGAQTEDEAIYFCALWYSNHLVFGEGTKLTVLQ
notes: also called KLHb1501CC; KLHb1501CC antibody
EC50 (read off the curve) (canine VEGFA (VEGF164)): ~0.03 µg/mL
EC50 (read off the curve) [4]: ~0.03 µg/mL

Reference: patent US20200165330A1 (ORDER MADE MEDICAL RESEARCH, published 2020)
